What was measured:
[1] = Enzyme assay on soluble/microsomal preparations of S. cerevisiae expressing STORR fusion or modules, substrate 1,2-dehydroreticuline; type: biochemical; details: soluble or microsomal preparations from S. cerevisiae; 100 μM substrate, 1 mM NADPH, 37° C. 3 hours
Description: (§1) Genscript created synthetic DNA sequences were created for PsCPR [Genbank accession AAC05021, (Rosco A. et al. (1997) Arch. Biochem. Biophys. 348, 369-77), the full length STORR (CYP82Y2-Oxidoreductatse (“Oxired”)) protein, the N-terminal CYP82Y2 module and C-terminal oxidoreductase (Oxidoreductase) module, that were codon optimised for expression is Saccharomyces cerevisiae. The codon-optimized sequences are provided with the SEQ ID NO 30-33.
(§2) Expression vector pESC-TRP::soloxired was created by digesting the corresponding PCR product with NotI and PacI and inserting this behind the GAL10 promoter of pESC-TRP. pESC-TRP::CPR was created by digesting the corresponding PCR product with BamHI and XhoI and inserting this behind the GAL1 promoter of pESC-TRP. This was then used to created pESC-TRP::CPR::CYP82Y2 and pESC-TRP::CPR::CYP82Y2-Oxidoreductase. These plasmids were then transformed in S. cerevisiae G175 (Sorger D. et al. (2004) J. Biol. Chem. 279, 31190-6) using lithium acetate protocol (Geitz R. D. and Woods R. A. (2002) Methods in Enzymology 350, 87-96). Yeasts were cultivated in Synthetic Defined (SD) medium composed of 2% carbon source, 0.5% ammonium sulfate, 1.7 g L^−1 yeast nitrogen base (without amino acids and ammonium sulfate) and 1.92 g L^−1 or tryptophan drop-out supplement (Sigma-Aldrich, Gillingham, UK). Cultures grown using glucose as a carbon source were used to inoculate 200 ml cultures with raffinose as a carbon source to an OD 600 nm of 0.10 in 1 L conical flasks. […]
(§3) Enzymes assays were set up in 250 μL volumes containing final concentrations of 50 mM Bis-tris propane buffer, 1 mM NADPH and 100 μM of substrate. […] The extract was then dissolved in 100 μL of 50:50:0.1 hexane/ethanol/diethylamine and analysed by the chiral HPLC method to determine the relative amounts of (R)- and (S)-reticuline.
(§4) Poppy capsules were processed and analysed by UPLC-MS and R-scripts as previously described (“the standard method”; (Winzer T. et al. (2012) Science 336, 1704-8)). […]

[2] = Enzyme assay on microsomal preparations of S. cerevisiae expressing STORR fusion or modules, substrate (S)-reticuline; type: biochemical
Description: as §1, §2, §3, §4

B1: CYP82Y2 module: N-terminal CYP82Y2 module of STORR (codon optimized SEQ ID NO 32) expressed with opium poppy CPR redox partner in S. cerevisiae (protein)
chain: MELQYISYFQPTSSVVALLLALVSILSSVVVLRKTFLNNYSSSPASSTKTAVLSHQRQQSCALPISGLLHIFMNKNGLIHVTLGNMADKYGPIFSFPTGSHRTLVVSSWEMVKECFTGNNDTAFSNRPIPLAFKTIFYACGGIDSYGLSSVPYGKYWRELRKVCVHNLLSNQQLLKFRHLIISQVDTSFNKLYELCKNSEDNHGNYTTTTTTAAGMVRIDDWLAELSFNVIGRIVCGFQSGPKTGAPSRVEQFKEAINEASYFMSTSPVSDNVPMLGWIDQLTGLTRNMKHCGKKLDLVVESIINDHRQKRRFSRTKGGDEKDDEQDDFIDICLSIMEQPQLPGNNNPSQIPIKSIVLDMIGGGTDTTKLTTIWTLSLLLNNPHVLDKAKQEVDAHFRTKRRSTNDAAAAVVDFDDIRNLVYIQAIIKESMRLYPASPVVERLSGEDCVVGGFHVPAGTRLWANVWKMQRDPKVWDDPLVFRPDRFLSDEQKMVDVRGQNYELLPFGAGRRVCPGVSFSLDLMQLVLTRLILEFEMKSPSGKVDMTATPGLMSYKVIPLDILLTHRRIKPCVQSAASERD
modifications: co-expressed with poppy CPR in yeast; Yeast codon optimized CYP82Y2
With B1 the “conversion efficiency of 1,2-dehydroreticuline to (R)-reticuline” value [1] was “not” and the “conversion of (S)-reticuline to 1,2-dehydroreticuline” value ([2]; microsomal preparations from S. cerevisiae, with CPR redox partner, 100 μM substrate, 37° C. 3 hours) was ~100%.

B2: STORR fusion: Full length CYP82Y2-oxidoreductase fusion protein (SEQ ID NO 1; codon optimized SEQ ID NO 31) expressed with PsCPR in S. cerevisiae (protein, listed as Papaver somniferum)
chain: MELQYISYFQPTSSVVALLLALVSILSSVVVLRKTFLNNYSSSPASSTKTAVLSHQRQQSCALPISGLLHIFMNKNGLIHVTLGNMADKYGPIFSFPTGSHRTLVVSSWEMVKECFTGNNDTAFSNRPIPLAFKTIFYACGGIDSYGLSSVPYGKYWRELRKVCVHNLLSNQQLLKFRHLIISQVDTSFNKLYELCKNSEDNHGNYTTTTTTAAGMVRIDDWLAELSFNVIGRIVCGFQSGPKTGAPSRVEQFKEAINEASYFMSTSPVSDNVPMLGWIDQLTGLTRNMKHCGKKLDLVVESIINDHRQKRRFSRTKGGDEKDDEQDDFIDICLSIMEQPQLPGNNNPSQIPIKSIVLDMIGGGTDTTKLTTIWTLSLLLNNPHVLDKAKQEVDAHFRTKRRSTNDAAAAVVDFDDIRNLVYIQAIIKESMRLYPASPVVERLSGEDCVVGGFHVPAGTRLWANVWKMQRDPKVWDDPLVFRPDRFLSDEQKMVDVRGQNYELLPFGAGRRVCPGVSFSLDLMQLVLTRLILEFEMKSPSGKVDMTATPGLMSYKVIPLDILLTHRRIKPCVQSAASERDMESSGVPVITLGSGKVMPVLGMGTFEKVGKGSERERLAILKAIEVGYRYFDTAAAYETEEVLGEAIAEALQLGLVKSRDELFISSMLWCTDAHADRVLLALQNSLRNLKLEYVDLYMLPFPASLKPGKITMDIPEEDICRMDYRSVWAAMEECQNLGFTKSIGVSNFSCKKLQELMATANIPPAVNQVEMSPAFQQKKLREYCNANNILVSAISVLGSNGTPWGSNAVLGSEVLKKIAMAKGKSVAQVSMRWVYEQGASLVVKSFSEERLRENLNIFDWELTKEDHEKIGEIPQCRILSAYFLVSPNGPFKSQEELWDDEA
modifications: co-expressed with PsCPR
With B2 the “conversion efficiency of 1,2-dehydroreticuline to (R)-reticuline” value [1] was 100%, the “accumulation of 1,2-dehydroreticuline during conversion of (S)- to (R)-reticuline” value ([2]; microsomal fractions harboring the fusion protein) was “no detectable accumulation” and the “added (S)-reticuline converted to (R)-reticuline” value ([2]; microsomal preparations from S. cerevisiae, with CPR, 100 μM substrate, 37° C. 3 hours) was “about 20%”.
